From patent US20230212549A1 (3B PHARMACEUTICALS, published 2023)
“And” between values parts separate entries of the source, which are not always exact repeats. Identical values can stand only once. Each block holds one binder with its values, some of them ahead of it. Numbered stars: 1 amine (or outer) side, 2 acyl side, 3 side chain; on linkers, the order of the positions; unused ones are H or OH. Bridge positions count the residues as written; N and C are the ends. Square brackets hold non-standard residues; d marks the D form. * marks the point of attachment. Pro(trans-4-F) = O=C(O)[C@@H]1C[C@@H](F)CN1; Phe(4-Cl) = N[C@@H](Cc1ccc(Cl)cc1)C(=O)O; Phe(2-Cl) = N[C@@H](Cc1ccccc1Cl)C(=O)O; 2Nal = N[C@@H](Cc1ccc2ccccc2c1)C(=O)O; mXylylene = c1cc(C[*:1])cc(C[*:2])c1; 4Amb = NCc1ccc(C(=O)O)cc1; Hexanoyl = CCCCCC(=O)*; Sar = CNCC(=O)O

Key:
[1] = biological target: Recombinant human FAP (R&D systems, #3715-SE) (human, UniProt Q12884 26-760); test: cell-based or functional assay
[2] = biological target: T1, fibroblast activation protein (FAP) on FAP-expressing human WI-38 fibroblasts (human, UniProt Q12884 1-760); test: competitive FACS, WI-38 cells, vs Cy5 tracer m3; C = pIC50 6.1-7.0
T1 construct: also called human FAP

[3] = biological target: T1, fibroblast activation protein (FAP) on …; test: competitive FACS, WI-38 cells, vs Cy5 tracer m3; B = pIC50 7.1-8.0

B1: Hex-[Cys(3MeBn)-Gly-Pro-Thr-Glu-Phe-Cys]-NH2 (peptide)
peptide: Hexanoyl-CGPTEFC-NH2
modifications: linker 1-7 via mXylylene
SMILES: CCCCCC(=O)N[C@H]1CSCc2cccc(c2)CSC[C@@H](C(N)=O)NC(=O)[C@H](Cc2ccccc2)NC(=O)[C@H](CCC(=O)O)NC(=O)[C@H]([C@@H](C)O)NC(=O)[C@@H]2CCCN2C(=O)CNC1=O
notes: also called 3BP-3345
pIC50 Category (Activity) [1]: 7.1 pIC50 and 8 pIC50
pIC50 Category (FACS) [2]: 6.1 pIC50 and 7 pIC50

B3: Hex-[Cys(3MeBn)-Nmg-Pro-Thr-Glu-Phe-Cys]-NH2 (peptide)
peptide: Hexanoyl-C[Sar]PTEFC-NH2
modifications: linker 1-7 via mXylylene
SMILES: CCCCCC(=O)N[C@H]1CSCc2cccc(c2)CSC[C@@H](C(N)=O)NC(=O)[C@H](Cc2ccccc2)NC(=O)[C@H](CCC(=O)O)NC(=O)[C@H]([C@@H](C)O)NC(=O)[C@@H]2CCCN2C(=O)CN(C)C1=O
notes: also called 3BP-3347
pIC50 Category (Activity) [1]: 7.1 pIC50 and 8 pIC50
pIC50 Category (FACS) [2]: 6.1 pIC50 and 7 pIC50

B5: Hex-[Cys(3MeBn)-Pro-Pro-Thr-Glu-Ocf-Cys]-NH2 (peptide)
peptide: Hexanoyl-CPPTE[Phe(2-Cl)]C-NH2
modifications: linker 1-7 via mXylylene
SMILES: CCCCCC(=O)N[C@H]1CSCc2cccc(c2)CSC[C@@H](C(N)=O)NC(=O)[C@H](Cc2ccccc2Cl)NC(=O)[C@H](CCC(=O)O)NC(=O)[C@H]([C@@H](C)O)NC(=O)[C@@H]2CCCN2C(=O)[C@@H]2CCCN2C1=O
notes: also called 3BP-3368
pIC50 Category (Activity) [1]: 7.1 pIC50 and 8 pIC50
pIC50 Category (FACS) [2]: 6.1 pIC50 and 7 pIC50

B6: Hex-[Cys(3MeBn)-Pro-Pro-Thr-Glu-2Ni-Cys]-NH2 (peptide)
peptide: Hexanoyl-CPPTE[2Nal]C-NH2
modifications: linker 1-7 via mXylylene
SMILES: CCCCCC(=O)N[C@H]1CSCc2cccc(c2)CSC[C@@H](C(N)=O)NC(=O)[C@H](Cc2ccc3ccccc3c2)NC(=O)[C@H](CCC(=O)O)NC(=O)[C@H]([C@@H](C)O)NC(=O)[C@@H]2CCCN2C(=O)[C@@H]2CCCN2C1=O
notes: also called 3BP-3362
pIC50 Category (Activity) [1]: 6.1 pIC50 and 7 pIC50
pIC50 Category (FACS) [2]: 6.1 pIC50 and 7 pIC50

B7: Hex-[Cys(3MeBn)-Pro-4Tfp-Thr-Glu-Phe-Cys]-NH2 (peptide)
peptide: Hexanoyl-CP[Pro(trans-4-F)]TEFC-NH2
modifications: linker 1-7 via mXylylene
SMILES: CCCCCC(=O)N[C@H]1CSCc2cccc(c2)CSC[C@@H](C(N)=O)NC(=O)[C@H](Cc2ccccc2)NC(=O)[C@H](CCC(=O)O)NC(=O)[C@H]([C@@H](C)O)NC(=O)[C@@H]2C[C@@H](F)CN2C(=O)[C@@H]2CCCN2C1=O
notes: also called 3BP-3352
pIC50 Category (Activity) [1]: 7.1 pIC50 and 8 pIC50
pIC50 Category (FACS) [2]: 6.1 pIC50 and 7 pIC50

The next lines start with the values.

pIC50 Category (Activity) [1]: 7.1 pIC50 and 8 pIC50
pIC50 Category (FACS) [2]: 6.1 pIC50 and 7 pIC50
B2: Hex-[Cys(3MeBn)-Pro-Pro-Thr-Glu-Phe-Cys]-NH2 (peptide)
peptide: Hexanoyl-CPPTEFC-NH2
modifications: linker 1-7 via mXylylene
SMILES: CCCCCC(=O)N[C@H]1CSCc2cccc(c2)CSC[C@@H](C(N)=O)NC(=O)[C@H](Cc2ccccc2)NC(=O)[C@H](CCC(=O)O)NC(=O)[C@H]([C@@H](C)O)NC(=O)[C@@H]2CCCN2C(=O)[C@@H]2CCCN2C1=O
notes: also called 3BP-3287

pIC50 Category (Activity) [1]: 6.1 pIC50 and 7 pIC50
pIC50 Category (FACS) [2]: 6.1 pIC50 and 7 pIC50
B4: Hex-[Cys(3MeBn)-Pro-Pro-Thr-Glu-Pcf-Cys]-NH2 (peptide)
peptide: Hexanoyl-CPPTE[Phe(4-Cl)]C-NH2
modifications: linker 1-7 via mXylylene
SMILES: CCCCCC(=O)N[C@H]1CSCc2cccc(c2)CSC[C@@H](C(N)=O)NC(=O)[C@H](Cc2ccc(Cl)cc2)NC(=O)[C@H](CCC(=O)O)NC(=O)[C@H]([C@@H](C)O)NC(=O)[C@@H]2CCCN2C(=O)[C@@H]2CCCN2C1=O
notes: also called 3BP-3369

pIC50 Category (Activity) [1]: > 8 pIC50
pIC50 Category (FACS) [3]: 7.1 pIC50 and 8 pIC50
B8: Hex-[Cys(3MeBn)-Pro-Pro-Thr-Glu-Phe-Cys]-Pamb-Arg-NH2 (peptide)
peptide: Hexanoyl-CPPTEFC[4Amb]R-NH2
modifications: linker 1-7 via mXylylene
SMILES: CCCCCC(=O)N[C@H]1CSCc2cccc(c2)CSC[C@@H](C(=O)NCc2ccc(C(=O)N[C@@H](CCCNC(=N)N)C(N)=O)cc2)NC(=O)[C@H](Cc2ccccc2)NC(=O)[C@H](CCC(=O)O)NC(=O)[C@H]([C@@H](C)O)NC(=O)[C@@H]2CCCN2C(=O)[C@@H]2CCCN2C1=O
notes: also called 3BP-3303
